Test: melting temperature; melt of duplexes
Conditions: sodium 0.0675 M; strand 1 µM

Row | Substance | Tm [°C]
1 | CGACGTGCTCTATGTGCTG+CAGCACATCTGGCACGTCG ((((((((...((((((((+))))))))...)))))))) | 49.5
2 | CGACGTGCCTTATGTGCTG+CAGCACATTGCGCACGTCG ((((((((...((((((((+))))))))...)))))))) | 48.4
3 | CGACGTGCTTCATGTGCTG+CAGCACATCCCGCACGTCG ((((((((...((((((((+))))))))...)))))))) | 47.5
4 | CGACGTGCGTCATGTGCTG+CAGCACATCCAGCACGTCG ((((((((...((((((((+))))))))...)))))))) | 50.7
5 | CGACGTGCGTCATGTGCTG+CAGCACATTGTGCACGTCG ((((((((...((((((((+))))))))...)))))))) | 46.3
6 | CGACGTGCAAGATGTGCTG+CAGCACATATCGCACGTCG ((((((((.(.((((((((+)))))))).).)))))))) | 50.3
7 | CGACGTGCACGATGTGCTG+CAGCACATGCCGCACGTCG ((((((((...((((((((+))))))))...)))))))) | 44.4
8 | CGACGTGCACGATGTGCTG+CAGCACATGGAGCACGTCG ((((((((.(.((((((((+)))))))).).)))))))) | 50.5
9 | CGACGTGCAACATGTGCTG+CAGCACATGACGCACGTCG ((((((((..(((((((((+)))))))))..)))))))) | 50.9
10 | CGACGTGCACTATGTGCTG+CAGCACATAATGCACGTCG (((((((((.(((((((((+))))))))).))))))))) | 51.2
11 | CGACGTGCCTCATGTGCTG+CAGCACATAATGCACGTCG ((((((((.(.((((((((+)))))))).).)))))))) | 48
12 | CGACGTGCCAAATGTGCTG+CAGCACATAACGCACGTCG ((((((((...((((((((+))))))))...)))))))) | 47.7
13 | CGACGTGCCCCATGTGCTG+CAGCACATAAAGCACGTCG ((((((((...((((((((+))))))))...)))))))) | 47.7
14 | CGACGTGCCTGATGTGCTG+CAGCACATACCGCACGTCG ((((((((...((((((((+))))))))...)))))))) | 48.1
15 | CGACGTGCATAATGTGCTG+CAGCACATACAGCACGTCG ((((((((...((((((((+))))))))...)))))))) | 48.2
16 | CGACGTGCTATATGTGCTG+CAGCACATCATGCACGTCG ((((((((...((((((((+))))))))...)))))))) | 50.2
17 | CGACGTGCTTAATGTGCTG+CAGCACATGCAGCACGTCG (((((((((..((((((((+))))))))..))))))))) | 52
18 | CGACGTGCATAATGTGCTG+CAGCACATGGTGCACGTCG (((((((((..((((((((+))))))))..))))))))) | 52.6

Row | Substance | Tm [°C]
19 | CGACGTGCTGGATGTGCTG+CAGCACATCTCGCACGTCG ((((((((..(((((((((+)))))))))..)))))))) | 55.3
20 | CGACGTGCTGTATGTGCTG+CAGCACATGGTGCACGTCG ((((((((...((((((((+))))))))...)))))))) | 47.2
21 | CGACGTGCAATATGTGCTG+CAGCACATTACGCACGTCG ((((((((...((((((((+))))))))...)))))))) | 49.7
22 | CGACGTGCTTGATGTGCTG+CAGCACATGACGCACGTCG ((((((((.(.((((((((+)))))))).).)))))))) | 46.5
23 | CGACGTGCAGCATGTGCTG+CAGCACATACGGCACGTCG ((((((((.(.((((((((+)))))))).).)))))))) | 49.3
24 | CGACGTGCTGAATGTGCTG+CAGCACATACAGCACGTCG ((((((((((.((((((((+)))))))).)))))))))) | 58.6
25 | CGACGTGCTACATGTGCTG+CAGCACATGAAGCACGTCG (((((((((.(((((((((+))))))))).))))))))) | 58.3
26 | CGACGTGCGTTATGTGCTG+CAGCACATTTTGCACGTCG ((((((((...((((((((+))))))))...)))))))) | 49.7
27 | CGACGTGCAGGATGTGCTG+CAGCACATGGCGCACGTCG ((((((((...((((((((+))))))))...)))))))) | 49.9
28 | CGACGTGCGTCATGTGCTG+CAGCACATATTGCACGTCG ((((((((...((((((((+))))))))...)))))))) | 49.2
29 | CGACGTGCATCATGTGCTG+CAGCACATGGTGCACGTCG (((((((((.(((((((((+))))))))).))))))))) | 60.1
30 | CGACGTGCATGATGTGCTG+CAGCACATAGTGCACGTCG (((((((((..((((((((+))))))))..))))))))) | 49.6
31 | CGACGTGCCAGATGTGCTG+CAGCACATGATGCACGTCG ((((((((...((((((((+))))))))...)))))))) | 49.4
32 | CGACGTGCTACATGTGCTG+CAGCACATTTGGCACGTCG ((((((((.(.((((((((+)))))))).).)))))))) | 51.1
33 | CGACGTGCTAGATGTGCTG+CAGCACATTCTGCACGTCG ((((((((...((((((((+))))))))...)))))))) | 52.2
34 | CGACGTGCGAAATGTGCTG+CAGCACATAGTGCACGTCG ((((((((...((((((((+))))))))...)))))))) | 46
35 | CGACGTGCGTCATGTGCTG+CAGCACATGGCGCACGTCG (((((((((.(((((((((+))))))))).))))))))) | 63.5
36 | CGACGTGCGCTATGTGCTG+CAGCACATCGGGCACGTCG ((((((((.(.((((((((+)))))))).).)))))))) | 52

Reference: the array DNA melting data of Ke et al.
